Assay results reported in the supplement of paper PMC10567573.

B1: SPSB1 (parent)
chain: DMRDPTYRPLKQELQGLDYCKPTR

Variants of: B1
Experiment: protein stability index of a GFP-peptide fusion (GPS, HEK-293T) (PSI 1-6); higher = more stable
Conditions: c terminus: a fixed tail appended
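Further: lentivirally expressed fusions sorted by FACS into six bins by GFP to DsRed ratio, PSI derived from sequencing read proportions per bin multiplied by bin number.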

Variant | protein stability index
T6P | 3.57
G16R | 3.78
G16I | 2.17
K21Y | 2.18
K21H | 2.46
K11F | 3.24
K11Y | 4.04
K11H | 3.32
M2P | 4.62
M2I | 3.19
M2K | 3.13
Q12N | 3.17
Q12W | 2.35
P9G | 3.51
D4V | 2.81
R3L | 2.9
R3H | 3.08
T23Q | 3.47
T23P | 4.33
Q15S | 3.59
L17D | 4.65
P22C | 3.71
Y19R | 4.4
D1A | 2.45
D1W | 1.78
